Test results: the supplement of paper PMC6757056
± gives the standard deviation of the averaged measurements.

B1: library; a variant is named by its letters at N, in order (parent)
chain: GCUGUCACCGGUGUAUUACCCUAGUGGUCGACCGGUCUGAUGAGUCUNNNNNNAGACGAAACAGC

Experiments:
hypoxanthine [1] = variants of: B1; assay: FACS-Seq fitted mean relative fluorescence mCherry/BFP without ligand (log10 relative fluorescence); ligand: hypoxanthine (xanthine aptamer); higher = higher reporter protein expression; settings: HEK293T, ligand present: no
In short: (§1)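 Genomic DNA from 6 mCherry/BFP sort bins was PCR-amplified, barcoded and sequenced on MiSeq. The sorted cells were enriched HEK293T libraries, lentivirally transduced with a ribozyme-switch mCherry reporter and an EF1α-BFP marker, incubated with or without ligand for 48 h. Fluorescence derives from a normal fit to the bin counts. The fit was on log10(mCherry/BFP), and means were scaled to five spiked-in control ribozymes.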

hypoxanthine [2] = variants of: B1; assay: normalized RNA/DNA level with ligand (relative to sTRSVctl = 100) (log10 (% of sTRSVctl)); ligand: hypoxanthine (xanthine aptamer); higher = less ribozyme self-cleavage, higher mRNA level; settings: ligand concentration (+) RNA-Seq: 5 mM, HEK293T, reporter: mCherry (pCS4076), ligand present: yes
In short: (§2)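 Library plasmids carrying ribozyme switches linked to mCherry, or to eGFP in some ligand experiments, were transfected into HEK293T at 4 µg per 6-well well, with any ligand added 1 h earlier. Seventy-two hours on, total RNA was extracted with EDTA and reverse-transcribed, amplified, barcoded and sequenced. RNA level was RNA over DNA reads normalized to a spiked-in non-cleaving sequence or to the top sequences, then scaled and log-transformed. The top set was 25 sequences, the transform was ×100 and log10, and sequences needed ≥100 DNA reads.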

hypoxanthine [3] = variants of: B1; assay: normalized RNA/DNA level without ligand (relative to sTRSVctl = 100) (log10 (% of sTRSVctl)); ligand: hypoxanthine (xanthine aptamer); higher = less ribozyme self-cleavage, higher mRNA level; settings: HEK293T, reporter: mCherry (pCS4076), ligand present: no
In short: as §2

hypoxanthine [4] = variants of: B1; assay: FACS-Seq fitted mean relative fluorescence mCherry/BFP with ligand (log10 relative fluorescence); ligand: hypoxanthine (xanthine aptamer); ligand concentration (+) FACS-Seq: 5 mM; higher = higher reporter protein expression; settings: HEK293T, ligand present: yes
In short: as §1

Variant | FACS-Seq fitted mean (log10) (hypoxanthine [1]) | normalized RNA/DNA level with ligand (log10) (hypoxanthine [2]) | normalized RNA/DNA level without ligand (log10) (hypoxanthine [3]) | FACS-Seq fitted mean (log10) (hypoxanthine [4])
GGGAAU | 0.489 ± 0.043 | 1.93 ± 0.045 | 1.64 ± 0.021 | 0.654 ± 0.069
GGGAAA | 0.227 ± 0.0031 | 1.867 ± 0.0029 | 1.57 ± 0.028 | 0.428 ± 0.03
GGGAAG | -0.183 ± 0.0054 | 1.64 ± 0.023 | 1.18 ± 0.014 | 0.325 ± 0.0034
UGCUCA | 0.419 ± 0.016 | 1.94 ± 0.0052 | 1.98 ± 0.061 | 0.498 ± 0.057
CGCUGC | 0.163 ± 0.06 | 1.98 ± 0.096 | 1.95 ± 0.083 | 0.518 ± 0.079
CGCUGA | 0.643 ± 0.033 | 1.9529 ± 0.00012 | 1.89 ± 0.03 | 0.635 ± 0.0074
CGAGCA | 0.378 ± 0.011 | 1.942 ± 0.0082 | 1.716 ± 0.012 | 0.543 ± 0.087
AGAGCG | 0.488 ± 0.026 | 1.81 ± 0.024 | 1.401 ± 0.002 | 0.431 ± 0.067
CGAUAC | -0.0585 ± 0.029 | 1.894 ± 0.0067 | 1.69 ± 0.019 | 0.176 ± 0.056
CGAUAA | 0.668 ± 0.13 | 1.86 ± 0.047 | 1.57 ± 0.022 | 0.637 ± 0.12
CGAUAG | 0.613 ± 0.0027 | 1.86 ± 0.12 | 1.7 ± 0.063 | 0.639 ± 0.052
GGAUAA | 0.5354 ± 0.0025 | 1.9 ± 0.025 | 1.74 ± 0.024 | 0.552 ± 0.016
GGAUAC | 0.616 ± 0.019 | 1.93 ± 0.026 | 1.73 ± 0.042 | 0.623 ± 0.084
GGAUAG | 0.188 ± 0.013 | 1.83 ± 0.028 | 1.39 ± 0.049 | 0.508 ± 0.041
UGCAAG | 0.123 ± 0.078 | 1.853 ± 0.0049 | 1.72 ± 0.021 | 0.179 ± 0.031
UGCAAA | 0.613 ± 0.029 | 1.879 ± 0.0083 | 1.787 ± 0.017 | 0.635 ± 0.019
GGCAGC | 0.306 ± 0.06 | 1.921 ± 0.012 | 1.603 ± 0.0027 | 0.651 ± 0.043
GGCAGA | 0.082 ± 0.022 | 1.921 ± 0.0091 | 1.51 ± 0.065 | 0.449 ± 0.062
GGCAGU | 0.196 ± 0.14 | 1.98 ± 0.04 | 1.85 ± 0.046 | 0.205 ± 0.0051
AGCCCG | -0.024 ± 0.027 | 1.956 ± 0.0061 | 1.61 ± 0.087 | 0.388 ± 0.038
AGCCCA | 0.0335 ± 0.1 | 1.923 ± 0.018 | 1.88 ± 0.025 | -0.145 ± 0.064
AGAGAG | 0.482 ± 0.014 | 1.75 ± 0.036 | 1.32 ± 0.069 | 0.443 ± 0.038
AGAGAU | 0.123 ± 0.09 | 1.85 ± 0.052 | 1.731 ± 0.0098 | -0.481 ± 0.049
AGCACG | 0.385 ± 0.023 | 1.87 ± 0.055 | 1.44 ± 0.085 | 0.609 ± 0.062

Variant | FACS-Seq fitted mean (log10) (hypoxanthine [1]) | normalized RNA/DNA level with ligand (log10) (hypoxanthine [2]) | normalized RNA/DNA level without ligand (log10) (hypoxanthine [3]) | FACS-Seq fitted mean (log10) (hypoxanthine [4])
AGCACC | -0.563 ± 0.05 | 1.98 ± 0.063 | 1.844 ± 0.0071 | -0.00735 ± 0.0039
AGCACA | -0.251 ± 0.011 | 1.92 ± 0.044 | 1.787 ± 0.0038 | -0.513 ± 0.043
GGAGUG | 0.301 ± 0.025 | 1.85 ± 0.027 | 1.413 ± 0.014 | 0.7 ± 0.032
GGAGUC | 0.764 ± 0.047 | 1.93 ± 0.042 | 1.885 ± 0.014 | 0.567 ± 0.047
CGAGAG | 0.304 ± 0.055 | 1.9 ± 0.078 | 1.71 ± 0.032 | 0.258 ± 0.014
UGCGGC | 0.67 ± 0.028 | 1.98 ± 0.035 | 1.9 ± 0.071 | 0.708 ± 0.037
UGCGGA | 0.465 ± 0.014 | 1.87 ± 0.056 | 1.518 ± 0.0062 | 0.733 ± 0.033
GGAUCG | 0.142 ± 0.037 | 1.95 ± 0.053 | 1.6404 ± 0.0014 | 0.517 ± 0.05
CGAGUU | 0.866 ± 0.02 | 2 ± 0.039 | 1.834 ± 0.015 | 0.833 ± 0.11
CGAGUC | 0.0141 ± 0.11 | 1.958 ± 0.016 | 1.91 ± 0.094 | 0.106 ± 0.053
GGAUGG | 0.131 ± 0.02 | 1.85 ± 0.027 | 1.33 ± 0.034 | 0.472 ± 0.035
GGAUGC | -0.0215 ± 0.024 | 1.85 ± 0.066 | 1.47 ± 0.075 | 0.483 ± 0.029
GGAUGA | 0.427 ± 0.085 | 1.89 ± 0.035 | 1.618 ± 0.0099 | 0.633 ± 0.029
AGCCAU | -0.282 ± 0.012 | 1.92 ± 0.052 | 1.78 ± 0.027 | 0.15 ± 0.033
AGCCAG | 0.512 ± 0.025 | 1.89 ± 0.024 | 1.591 ± 0.007 | 0.71 ± 0.041
AGCCAA | 0.57 ± 0.1 | 1.888 ± 0.017 | 1.8 ± 0.028 | 0.566 ± 0.067
GGCCUG | 0.145 ± 0.02 | 1.99 ± 0.062 | 1.809 ± 0.013 | 0.239 ± 0.046
UGAUGA | 0.599 ± 0.053 | 1.906 ± 0.0054 | 1.58 ± 0.035 | 0.575 ± 0.14
GGAUUG | 0.023 ± 0.012 | 1.857 ± 0.017 | 1.42 ± 0.059 | 0.4602 ± 0.0025
UGCCAC | 0.327 ± 0.019 | 1.94 ± 0.031 | 1.89 ± 0.02 | 0.42 ± 0.01
UGCCAG | 0.421 ± 0.0089 | 1.9 ± 0.034 | 1.727 ± 0.0076 | 0.288 ± 0.093
UGAGGA | 0.402 ± 0.033 | 1.885 ± 0.015 | 1.5 ± 0.056 | 0.633 ± 0.061
AGAGUA | 0.5286 ± 0.0017 | 1.892 ± 0.0036 | 1.7 ± 0.034 | 0.675 ± 0.034
UGAGAU | 0.648 ± 0.051 | 1.887 ± 0.017 | 1.713 ± 0.0063 | 0.743 ± 0.033

Variant | FACS-Seq fitted mean (log10) (hypoxanthine [1]) | normalized RNA/DNA level with ligand (log10) (hypoxanthine [2]) | normalized RNA/DNA level without ligand (log10) (hypoxanthine [3]) | FACS-Seq fitted mean (log10) (hypoxanthine [4])
UGAGAG | 0.372 ± 0.012 | 1.87 ± 0.03 | 1.67 ± 0.04 | 0.364 ± 0.023
AGCAGA | 0.386 ± 0.043 | 1.879 ± 0.01 | 1.41 ± 0.027 | 0.623 ± 0.019
AGCAGC | 0.426 ± 0.013 | 1.99 ± 0.058 | 1.74 ± 0.049 | 0.54 ± 0.14
AGCAGG | 0.0745 ± 0.0069 | 1.83 ± 0.055 | 1.396 ± 0.0059 | 0.533 ± 0.079
GGAGAG | 0.274 ± 0.052 | 1.81 ± 0.058 | 1.3 ± 0.017 | 0.507 ± 0.023
GGAGAC | -0.358 ± 0.15 | 1.86 ± 0.066 | 1.75 ± 0.086 | 0.13 ± 0.024
UGAUUU | 0.485 ± 0.022 | 1.945 ± 0.0024 | 1.924 ± 0.012 | 0.6805 ± 0.0064
UGAUUC | 0.59 ± 0.061 | 1.993 ± 0.0057 | 1.977 ± 0.011 | 0.627 ± 0.06
AGCCGA | 0.399 ± 0.018 | 1.925 ± 0.0069 | 1.68 ± 0.027 | 0.547 ± 0.036
AGCCGG | -0.0509 ± 0.035 | 1.91 ± 0.012 | 1.67 ± 0.02 | 0.305 ± 0.055
AGCGCG | 0.0574 ± 0.015 | 1.91 ± 0.083 | 1.43 ± 0.051 | 0.359 ± 0.012
AGCGCU | 0.228 ± 0.049 | 1.93 ± 0.032 | 1.85 ± 0.028 | 0.22 ± 0.0027
GGAGCA | 0.654 ± 0.037 | 1.946 ± 0.0077 | 1.783 ± 0.0088 | 0.686 ± 0.1
GGAGCU | 0.211 ± 0.041 | 1.956 ± 0.0072 | 1.96 ± 0.044 | -0.117 ± 0.033
GGAGCG | 0.171 ± 0.034 | 1.93 ± 0.043 | 1.49 ± 0.04 | 0.456 ± 0.023
CGCGGG | 0.374 ± 0.021 | 1.84 ± 0.026 | 1.36 ± 0.036 | 0.72 ± 0.051
AGGAAA | 0.102 ± 0.031 | 1.87 ± 0.019 | 1.56 ± 0.037 | 0.42 ± 0.058
AGGAAC | 0.573 ± 0.093 | 1.91 ± 0.042 | 1.66 ± 0.039 | 0.568 ± 0.099
AGGAAG | -0.0152 ± 0.00091 | 1.63 ± 0.038 | 1.11 ± 0.055 | 0.161 ± 0.026
UGAGUG | 0.274 ± 0.026 | 1.9 ± 0.0079 | 1.64 ± 0.047 | 0.263 ± 0.019
UGAGUC | 0.177 ± 0.08 | 1.99 ± 0.004 | 1.97 ± 0.025 | -0.0516 ± 0.012
AGCGUG | 0.152 ± 0.014 | 1.798 ± 0.014 | 1.37 ± 0.042 | 0.398 ± 0.032
AGCGUC | 0.8 ± 0.033 | 1.971 ± 0.0074 | 1.966 ± 0.01 | 0.743 ± 0.075
